Patent US20190367631A1 (Regeneron, published 2019)
Where a chain is given by its changes, count along the chain named. Numbers in names are those of the source. Each block holds one binder with its values, some of them ahead of it.

Assays:
[1] = biological target: T1, mouse MSR1 on RAW264.7 cells (mouse, UniProt P30204 1-458); assay: flow cytometry, RAW264.7 cells
T1 construct: whole, on cells; also called MSR1 positive RAW264.7 cells
T1 sequence (looked up): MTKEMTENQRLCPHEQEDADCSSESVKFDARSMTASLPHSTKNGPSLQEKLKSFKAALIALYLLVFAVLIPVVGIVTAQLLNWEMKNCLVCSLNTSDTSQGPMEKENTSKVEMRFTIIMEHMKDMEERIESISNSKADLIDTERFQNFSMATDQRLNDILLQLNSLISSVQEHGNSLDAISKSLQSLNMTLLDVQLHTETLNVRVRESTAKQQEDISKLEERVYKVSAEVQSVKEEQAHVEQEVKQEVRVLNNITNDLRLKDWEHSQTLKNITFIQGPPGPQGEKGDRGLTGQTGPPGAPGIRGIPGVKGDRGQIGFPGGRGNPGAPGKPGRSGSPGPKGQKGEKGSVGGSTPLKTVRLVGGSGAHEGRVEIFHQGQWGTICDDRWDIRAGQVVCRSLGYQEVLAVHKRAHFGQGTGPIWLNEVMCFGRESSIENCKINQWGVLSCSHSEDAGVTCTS
Protocol: To block binding to Fc receptors, RAW264.7 cells were incubated for 30 minutes at 4° C. with 500 pg/mL mouse IgG (Jackson ImmunoResearch, Cat #015-000-003) diluted in staining buffer, while B16F10.9 cells remained in staining buffer. […] The signal to noise (S/N) was determined by calculating the ratio of the anti-MSR1 antibodies or the control antibodies MFI to the unstained sample MFI (Table 11).

[2] = biological target: T2, human MSR1 extracellular domain expressed with a N-terminal nonahistidine tag (His9-hMSR1); R&D Systems, Cat … (human, UniProt P21757 77-451); assay: SPR Biacore, 25 C, antibody captured;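 further: rates from 1:1 fit with mass transport limitation of real-time sensorgrams, HEPES-buffered saline with EDTA and Tween-20 at pH 7.4, KD and t½ derived from the kinetic rates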
T2 construct: extracellular domain; also called His-hMSR1; 9xHis-hMSR1; not shown: N-terminal nonahistidine tag
T2 sequence (looked up): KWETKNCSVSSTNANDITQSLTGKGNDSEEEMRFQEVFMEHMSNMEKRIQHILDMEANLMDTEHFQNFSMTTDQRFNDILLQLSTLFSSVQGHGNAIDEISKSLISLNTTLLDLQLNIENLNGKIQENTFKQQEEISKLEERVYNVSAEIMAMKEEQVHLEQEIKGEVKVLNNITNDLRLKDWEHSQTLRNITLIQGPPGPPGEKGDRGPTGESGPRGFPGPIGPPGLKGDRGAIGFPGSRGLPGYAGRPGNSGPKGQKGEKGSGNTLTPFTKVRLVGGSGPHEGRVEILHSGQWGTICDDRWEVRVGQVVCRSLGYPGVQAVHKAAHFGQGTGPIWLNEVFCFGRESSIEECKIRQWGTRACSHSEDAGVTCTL

[3] = biological target: T3, monkey MSR1 extracellular domain expressed with a N-terminal hexahistidine-myc-myc tag (HMM-mfMSR1) (monkey (Macaca fascicularis)); assay: SPR Biacore, 25 C, antibody captured;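 further: rates from 1:1 fit with mass transport limitation of real-time sensorgrams, HEPES-buffered saline with EDTA and Tween-20 at pH 7.4, KD and t½ derived from the kinetic rates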
T3 chain: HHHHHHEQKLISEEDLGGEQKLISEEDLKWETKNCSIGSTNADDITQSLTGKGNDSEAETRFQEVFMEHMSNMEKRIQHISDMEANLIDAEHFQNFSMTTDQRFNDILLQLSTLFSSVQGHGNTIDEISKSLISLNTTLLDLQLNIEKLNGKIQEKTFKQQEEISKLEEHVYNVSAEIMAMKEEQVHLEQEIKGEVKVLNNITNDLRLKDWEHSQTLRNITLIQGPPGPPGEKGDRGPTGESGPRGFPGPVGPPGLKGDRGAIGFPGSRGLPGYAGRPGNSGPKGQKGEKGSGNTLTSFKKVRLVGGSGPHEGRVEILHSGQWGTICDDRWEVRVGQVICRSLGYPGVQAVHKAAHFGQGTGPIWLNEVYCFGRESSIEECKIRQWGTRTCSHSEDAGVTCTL
Protocol: (§1) Binding affinities and kinetic constants of human anti-MSR1 antibodies for different MSR1 reagents were determined by real-time surface plasmon resonance (Biacore 4000). All binding studies were performed in 10 mM HEPES, 150 mM NaCl, 3 mM EDTA, and 0.05% v/v Surfactant Tween-20, pH 7.4 (HBS-ET) running buffer at 25° C. and 37° C.
(§2) The association rate (kₐ) and dissociation rate (kd) were determined by fitting the real-time binding sensorgrams to a 1:1 binding model with mass transport limitation using Scrubber 2.0c curve-fitting software. Binding dissociation equilibrium constant (KD) and dissociative half-life (t½) were calculated from the kinetic rates as:

[4] = biological target: T2, human MSR1 extracellular domain …; assay: SPR Biacore, 37 C, antibody captured
Protocol: as §1, §2

[5] = biological target: T3, monkey MSR1 extracellular domain …; assay: SPR Biacore, 37 C, antibody captured
Protocol: as §1, §2

B1: H1H27749P-N297Q (antibody, human IgG1, V domains shown)
VH: QVQLQESGPGLVKPSETLSLTCTVSDGSISSYYWSWIRQPPGRGLEWIGFIYYSGSTSYNPSLKSRVTISVDTSMSQFSLKLRSVTAADTAVYYCARGSPFDYWGPGTLVTVSS
VL: EIVLTQSPGTLSLSPGERATLSCRASQSVSSSYLAWYQQRPGQAPSLLISGASRRATGIPDRFSGSGSGTDFTLTIRRLEPEDFAMYYCQQYGSSPPTFGGGTKVEIKR
notes: human IgG1 Fc with N297Q
- MFI [1]: 3790 MFI
- S/N (MFI over unstained MFI) [1]: 1

B3: H1H21231N-N297Q (antibody, human IgG1, V domains shown)
VH: EVQLVESGGGLVQPGGSLRLSCAASGFTFSDHYMDWVRQAPGKGLEWVGRTRNKANSHTTEYTASVTGRFTISRDDSRNSLYLQMNSLKTEDTAVYYCVRAGIIGTLFDYWGQGTLVTVSS
VL: DIQMTQFPSSLSASVGDRVTITCRASQSISSFLNWFQQKPGKAPKFLIYAASSLQSGVPSRFSGSGSGTDFTLTISSLQPEDFATYYCQQSYSSPPITFGQGTRLEIKR
notes: human IgG1 Fc with N297Q point mutation
- MFI [1]: 3580 MFI
- S/N (MFI over unstained MFI) [1]: 1

B4: H1H27747P-N297Q (antibody, human IgG1, V domains shown)
VH: QVQLVESGGAVVQPGRSLRLSCAASGFTFSYYGMHWVRQAPGKGLEWVAVISYDGSKKYYADSVKGRFTISRDNSKNTLYLQMNSLRAEDTAVYYCAKDLTVDFYYGMDVWGQGTTVTVSS
VL: DIQMTQSPSSVSASVGDRVTITCRASQGISSWLAWYQQKPGKAPKLLIYATSSLQSGAPSRFSGSGSGTDFTLTISSLQPEDFATYFCQQANSFPYTFGQGTKLEIKR
notes: human IgG1 Fc with N297Q
- MFI [1]: 3630 MFI
- S/N (MFI over unstained MFI) [1]: 1

B5: H1H27754P-N297Q (antibody, human IgG1, V domains shown)
VH: EVQLVESGGGLVQPGGSLRLSCAASGFTFRTYAMTWVRQAPGKGLDWVSAITGDGGNTYYADSVKGRFTISRDNSKNTLYLQMNSLRAEDTAIYYCAKDQRFSFALYYFDYWGQGTLVTVSS
VL: B4 VL with K42N, T51A, S52F, A58V, F87Y, S93N, Y96W, L104V
notes: human IgG1 Fc with N297Q
- MFI [1]: 5410 MFI
- S/N (MFI over unstained MFI) [1]: 1

B8: H1H27736P-N297Q (antibody, human IgG1, V domains shown)
VH: EVQLVESGGGLVQPGGSLRLSCAASGFTFSSYAMSWVRQAPGKGLEWVSSISGSGDSTFYTDSVKGRFTISRDISKNTLYLQMNSLRAEDTAVYYCAKDRLLWFGDLISPFHYWGQGTLVTVSS
VL: EIVLTQSPGTLSLSPGERATLSCRASQSVSNIYLAWYQQKPAQAPRLLIYGASSRATGIPDRFSVSGSGTDFTLTISRLEPEDFAVYYCQQYGSSPRTFGQGTKVEIKR
notes: human IgG1 Fc with N297Q
- MFI [1]: 3550 MFI
- S/N (MFI over unstained MFI) [1]: 1

B9: H1H27761P-N297Q (antibody, V domains shown)
VH: EVQLVESGGDLVQPGGSLRLSCSASGFTFNIYAMSWVRQAPGKGLEWVSGISGSGGSTYYADSVKGRFTISRDNSKNTLYFQMNSLRVEDTAVYYCAKKISSSSYYYYAMDVWGQGTTVTVSS
VL: not shown
notes: Human IgG1 Fc with N297Q; tied by the numerical identifier; also called H1H27761P2-N297Q; H1H27761P2
- Kd [2]: 1.63 nM
- koff [2]: 0.00051 s⁻¹
- kon [2]: 312000 M⁻¹ s⁻¹
- t½ [2]: 23 min
- Kd [3]: 1.88 nM
- koff [3]: 0.000597 s⁻¹
- kon [3]: 318000 M⁻¹ s⁻¹
- t½ [3]: 19 min
- Kd [4]: 3.26 nM
- koff [4]: 0.00222 s⁻¹
- kon [4]: 681000 M⁻¹ s⁻¹
- t½ [4]: 5 min
- Kd [5]: 2.32 nM
- koff [5]: 0.00214 s⁻¹
- kon [5]: 920000 M⁻¹ s⁻¹
- t½ [5]: 5 min

Continued, values first:

- S/N (MFI over unstained MFI) [1]: 1
B2: H1H27778P2-N297Q (antibody, human IgG1, V domains shown)
VH: EVQLVESGGGLEQPGGSLRLSCAASGFTFSSYAMSWVRQAPGKGLEWVSVISGSGGYTNYADSVKGRFTISRDNSKNTLYLQMNRLRAEDSAVYYCARHNWNYDYYGMDVWGQGTTVTVSS
VL: not shown
notes: human IgG1 Fc with N297Q; also called H1H27778P-N297Q

- S/N (MFI over unstained MFI) [1]: 1
B6: H1H27773P2-N297Q (antibody, human IgG1, V domains shown)
VH: EVQLVESGGGLVQPGGSLRLSCAASGFTFSSYAMNWVRQAPGKGLEWVSAISGSGDSTYYADSVKGRFTISRDNSRTTLSLQLNSLRAEDTAVYYCAKDRLLWFGELGSPFHYWGQGTLVTVSS
VL: not shown
notes: human IgG1 Fc with N297Q; also called H1H27773P-N297Q

- S/N (MFI over unstained MFI) [1]: 1
B7: H1H27771P2-N297Q (antibody, human IgG1, V domains shown)
VH: EVQLVESGGGLVQPGGSLRLSCAASGFTFSSYGMNWVRQAPGKGLEWVSVISGSGGSTYYADSVKGRFTISRDNSKNTLYLQMNSLRAEDTAVYYCAKDRWTYYYDSSGSPFDYWGQGTLVTVSS
VL: not shown
notes: human IgG1 Fc with N297Q; also called H1H27771P-N297Q
